According to article PMC2064341 (The Journal of Cell Biology, 2006):

Target: T1, 6-His-tagged RLIP76ΔRBD (human, UniProt Q15311 1-392)
T1 sequence: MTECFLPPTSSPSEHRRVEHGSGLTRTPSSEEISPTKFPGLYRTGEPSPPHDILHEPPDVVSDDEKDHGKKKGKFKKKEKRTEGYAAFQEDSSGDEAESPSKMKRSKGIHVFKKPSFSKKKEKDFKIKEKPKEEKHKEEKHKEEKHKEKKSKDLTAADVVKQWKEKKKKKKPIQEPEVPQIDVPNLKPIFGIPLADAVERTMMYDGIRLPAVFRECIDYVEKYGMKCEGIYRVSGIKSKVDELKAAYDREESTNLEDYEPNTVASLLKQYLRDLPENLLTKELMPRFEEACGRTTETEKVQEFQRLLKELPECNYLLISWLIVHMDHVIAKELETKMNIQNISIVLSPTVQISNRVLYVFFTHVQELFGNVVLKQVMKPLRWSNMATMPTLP
Test: pull-down

- binding result: binds
B1: GST–R-Ras(wt) (natural protein, human, UniProt P10301 1-218, looked up)
chain: MSSGAASGTGRGRPRGGGPGPGDPPPSETHKLVVVGGGGVGKSALTIQFIQSYFVSDYDPTIEDSYTKICSVDGIPARLDILDTAGQEEFGAMREQYMRAGHGFLLVFAINDRQSFNEVGKLFTQILRVKDRDDFPVVLVGNKADLESQRQVPRSEASAFGASHHVAYFEASAKLRLNVDEAFEQLVRAVRKYQEQELPPSPPSAPRKKGGGCPCVLL
